The chains are these.
B1: Cell cycle serine/threonine-protein kinase hsk1 (Schizosaccharomyces pombe (strain ATCC 38366 / 972)), P50582 (parent)
chain: MAEAHITLSPKVTHEQQTDIDSECEITEVDDENVNENKSQEMIQDIPARDREEIENITRTFVELQENYRLIEKIGEGTFSSVYKAEDLHYGRYINDWDIQSEVLKESSFGKEKIPVNEDSRKPKYVAIKKIYATSSPARIYNELEILYLLRGSSVIAPLITALRNEDQVLVVLPYYEHTDFRQYYSTFSYRDMSIYFRCLFQAMQQTQTLGIIHRDIKPSNFLFDVRTKHGVLVDFGLAERYDGRQQSHSCRCTNSNAAELAHDFSIAQETSLGYIKNDTRPSKRANRAGTRGFRAPEVLFKCSSQSPKVDIWSAGVILLSFLTKRFPMFNSKDDVDALMEIACIFGKSEMRQCAALHGCTFETNVSTLTEKRVNFRKLILWASCGSASIYKEKLRHKPSQEERLCLDFLEKCLELDCNKRISAEEALDHDFLYLDNLAYEKKDDDTAFDNSFGETSFEKDEDLTAKHLSHILDFKEQEETDEPTSLSKRKRSIDEILPNDALQDGA
partner: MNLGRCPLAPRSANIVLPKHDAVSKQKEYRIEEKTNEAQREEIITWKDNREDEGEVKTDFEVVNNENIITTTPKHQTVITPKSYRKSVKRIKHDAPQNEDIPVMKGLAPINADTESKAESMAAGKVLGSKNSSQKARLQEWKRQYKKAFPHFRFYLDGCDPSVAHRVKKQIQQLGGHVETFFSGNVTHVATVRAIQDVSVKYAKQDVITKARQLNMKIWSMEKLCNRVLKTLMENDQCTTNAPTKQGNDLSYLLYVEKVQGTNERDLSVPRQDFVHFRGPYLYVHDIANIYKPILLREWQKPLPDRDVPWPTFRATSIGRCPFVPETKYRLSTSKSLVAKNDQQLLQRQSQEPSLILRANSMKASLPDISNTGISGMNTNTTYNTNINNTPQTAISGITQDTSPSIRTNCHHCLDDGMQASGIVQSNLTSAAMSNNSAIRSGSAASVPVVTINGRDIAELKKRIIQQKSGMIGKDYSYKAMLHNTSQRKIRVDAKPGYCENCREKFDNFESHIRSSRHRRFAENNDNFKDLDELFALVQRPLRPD

In the assay the parent is B1. Particulars: with him1_schpo him1, O59836.
As to MAEAHITLSPKVTHEQQTDIDSECEITEVDDENVNENKSQEMIQDIPARDREEIENITRTFVELQENYRLIEKIGEGTFSSVYKAEDLHYGRYINDWDIQSEVLKESSFGKEKIPVNEDSRKPKYVAIASIYATSSPARIYNELEILYLLRGSSVIAPLITALRNEDQVLVVLPYYEHTDFRQYYSTFSYRDMSIYFRCLFQAMQQTQTLGIIHRDIKPSNFLFDVRTKHGVLVDFGLAERYDGRQQSHSCRCTNSNAAELAHDFSIAQETSLGYIKNDTRPSKRANRAGTRGFRAPEVLFKCSSQSPKVDIWSAGVILLSFLTKRFPMFNSKDDVDALMEIACIFGKSEMRQCAALHGCTFETNVSTLTEKRVNFRKLILWASCGSASIYKEKLRHKPSQEERLCLDFLEKCLELDCNKRISAEEALDHDFLYLDNLAYEKKDDDTAFDNSFGETSFEKDEDLTAKHLSHILDFKEQEETDEPTSLSKRKRSIDEILPNDALQDGA [K129A;K130S], the “effect of a mutation on the interaction” value is “with no effect”.

For the origin of these results see IntAct's records for PubMed 10409743.
